Experimental findings from the RNAGym collection of RNA variant scans (doi:10.1093/nar/gkz1192) are described below.

First the molecules themselves.
B1: CPEB3 Ribozyme (parent)
chain: UAACAGGGGGCCACAGCAGAAGCGUUCACGUCGCAGCCCCUGUCAGAUUCUGGUGAAUCUGCGAAUUCUGCUGUAUAUCUC

The variants in this data set derive from B1. The data set is described as follows: self-cleavage, relative activity (ratio to wild type); higher = more cleavage; in vitro, sequencing. The method, boiled down: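 For each CPEB3 ribozyme variant, relative activity is its cleaved/total read fraction divided by the unmutated ribozyme's. Barcoded error-prone PCR libraries were transcribed by T7 RNA polymerase (5 hours, 37°C) and held in DNase I for 15 min before an EDTA stop, with cleavage occurring throughout. Template-switching reverse transcription and Illumina sequencing were used to read the RNAs. A 5-read minimum applied, and results are the mean of three batches.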
Regarding UAACAGGGGGCCACAGCAGAAGCGCUCACGUAGCAGCCCCUGUCAGAUUCUGGUGAAUCUGCGAAUUCUGCUGUAUAUCUC [U25C C32A], the self-cleavage is 0.22.

On to UAACAGGGGGCCACAGCAGAAGCGCUCACGUUGCAGCCCCUGUCAGAUUCUGGUGAAUCUGCGAAUUCUGCUGUAUAUCUC [U25C C32U], for which the self-cleavage was 0.14.

As for UAACAGGGGGCCACAGCAGAAGCGAUCACGUCGCAGCCCCUGUCAGAUUCUGGUGAAUCUGCGAAUUCUGCUGUAAAUCUC [U25A U76A], the self-cleavage stood at 0.25.

UAACAGGGGGCCACAGCAGAAGCGAUCACGUCGCAGCCCCUGUCAGAUUCUGGUGAAUCUGCGAAUUCUGCUGUACAUCUC [U25A U76C]: the self-cleavage was 0.32.

As to UAACAGGGGGCCACAGCAGAAGCGCUCACGUCGCAGCCCCUGUCAGAUUCUGGUGAAUCUGCGAAUUCUGCUGUAUCUCUC [U25C A77C], the self-cleavage came out at 0.3.

As to UAACAGGGGGCCACAGCAGAAGCGCUCACGUCGCAGCCCCUGUCAGAUUCUGGUGAAUCUGCGAAUUCUGCUGUAUUUCUC [U25C A77U], the self-cleavage amounted to 0.26.

With UAACAGGGGGCCACAGCAGAAGCGCUCACGUCGCAGCCCCUGUCAGAUUCUGGUGAAUCUGCGAAUUCUGCUGUAUGUCUC [U25C A77G], the self-cleavage was determined as 0.27.

As to UAACAGGGGGCCACAGCAGAAGCGCUCACGUCGCAGCGCCUGUCAGAUUCUGGUGAAUCUGCGAAUUCUGCUGUAUAUCUC [U25C C38G], the self-cleavage stood at 0.19.

Consider UAACAGGGGGCCACAGCAGAAGCGCUCACGUCGCAGCUCCUGUCAGAUUCUGGUGAAUCUGCGAAUUCUGCUGUAUAUCUC [U25C C38U], for which the self-cleavage came out at 0.68.

On to UAACAGGGGGCCACAGCAGAAGCGCUCACGUCGCAGCACCUGUCAGAUUCUGGUGAAUCUGCGAAUUCUGCUGUAUAUCUC [U25C C38A], for which the self-cleavage was 0.18.

Regarding UAACAGGGGGCCACAGCAGAAGCGAUCACGUCGCAGCCCCUGUCAGAUUCUGGUGAAGCUGCGAAUUCUGCUGUAUAUCUC [U25A U58G], the self-cleavage amounted to 0.1.

With UAACAGGGGGCCACAGCAGAAGCGAUCACGUCGCAGCCCCUGUCAGAUUCUGGUGAAUCUGCGAAUACUGCUGUAUAUCUC [U25A U67A], the self-cleavage was found to be 0.46.

As to UAACAGGGGGCCACAGCAGAAGCGAUCACGUCGCAGCCCCUGUCAGAUUCUGGUGAAUCUGCGAAUCCUGCUGUAUAUCUC [U25A U67C], the self-cleavage is 0.19.

Turning to UAACAGGGGGCCACAGCAGAAGCGAUCACGUCGCAGCCCCUGUCAGAUUCUGGUGAAUCUGCGAAUUCUGCCGUAUAUCUC [U25A U72C], the self-cleavage amounted to 0.22.

Regarding UAACAGGGGGCCACAGCAGAAGCGAUCACGUCGCAGCCCCUGUCAGAUUCUGGUGAAUCUGCGAAUUCUGCAGUAUAUCUC [U25A U72A], the self-cleavage was 0.3.

Consider UAACAGGGGGCCACAGCAGAAGCGAUCACGUCGCAGCCCCUGUCAGAUUCUGGUGAAUCUGCGAAUUCUGCGGUAUAUCUC [U25A U72G], for which the self-cleavage was determined as 0.06.

UAACAGGGGGCCACAGCAGAAGCGAUCACGUCGCAGCCCCUGUCAGAUUCUGGUGAAUCCGCGAAUUCUGCUGUAUAUCUC [U25A U60C]: the self-cleavage came to 0.21.

As for UAACAGGGGGCCACAGCAGAAGCGAUCACGUCGCAGCCCCUGUCAGAUUCUGGUGAAUCAGCGAAUUCUGCUGUAUAUCUC [U25A U60A], the self-cleavage stood at 0.29.

Regarding UAACAGGGGGCCACAGCAGAAGCGAUCACGUCGCAGCCCCUGUCAGAUUCUGGUGAAUCUGCGAAUUCUGCUGCAUAUCUC [U25A U74C], the self-cleavage came to 0.33.

For the variant UAACAGGGGGCCACAGCAGAAGCGAUCACGUCGCAGCCCCUGUCAGAUUCUGGUGAAUCUGCGAAUUCUGCUGAAUAUCUC [U25A U74A], the self-cleavage amounted to 0.25.

As for UAACAGGGGGCCACAGCAGAAGCGCUCACGUCGCAGCCCCUGUCAGUUUCUGGUGAAUCUGCGAAUUCUGCUGUAUAUCUC [U25C A47U], the self-cleavage was found to be 0.23.

UAACAGGGGGCCACAGCAGAAGCGCUCACGUCGCAGCCCCUGUCAGGUUCUGGUGAAUCUGCGAAUUCUGCUGUAUAUCUC [U25C A47G]: the self-cleavage came out at 0.27.

For UAACAGGGGGCCACAGCAGAAGCGCUCACGUCGCAGCCACUGUCAGAUUCUGGUGAAUCUGCGAAUUCUGCUGUAUAUCUC [U25C C39A], the self-cleavage is 0.23.

Take UAACAGGGGGCCACAGCAGAAGCGCUCACGUCGCAGCCGCUGUCAGAUUCUGGUGAAUCUGCGAAUUCUGCUGUAUAUCUC [U25C C39G]: the self-cleavage came to 0.15.

As to UAACAGGGGGCCACAGCAGAAGCGCUCACGUCGCAGCCUCUGUCAGAUUCUGGUGAAUCUGCGAAUUCUGCUGUAUAUCUC [U25C C39U], the self-cleavage turned out to be 0.2.

In the case of UAACAGGGGGCCACAGCAGAAGCGCUCACGUCGCAGCCCCUGUCAGAUUCUGGUGAAUCUGCGAAUUCUGCUGUGUAUCUC [U25C A75G], the self-cleavage worked out at 0.23.

With UAACAGGGGGCCACAGCAGAAGCGCUCACGUCGCAGCCCCUGUCAGAUUCUGGUGAAUCUGCGAAUUCUGCUGUCUAUCUC [U25C A75C], the self-cleavage was found to be 0.35.

In the case of UAACAGGGGGCCACAGCAGAAGCGCUCACGUCGCAGCCCCUGUCAGAUUCUGGUGAAUCUGCGAAUUCUGCUGUUUAUCUC [U25C A75U], the self-cleavage was 0.34.

UAACAGGGGGCCACAGCAGAAGCGAUCACGUCGCAGCCCCUGUCAGAUUCUGGUGAAUCUGCGAAUUCAGCUGUAUAUCUC [U25A U69A]: the self-cleavage is 0.27.

Turning to UAACAGGGGGCCACAGCAGAAGCGAUCACGUCGCAGCCCCUGUCAGAUUCUGGUGAAUCUGCGAAUUCCGCUGUAUAUCUC [U25A U69C], the self-cleavage came to 0.25.

As to UAACAGGGGGCCACAGCAGAAGCGAUCACGUCGCAGCCCCUGUCAGAUUCUGGUGAAUCUGCGAAUUCUGCUGUAUACCUC [U25A U78C], the self-cleavage was found to be 0.13.

Regarding UAACAGGGGGCCACAGCAGAAGCGAUCACGUCGCAGCCCCUGUCAGAUUCUGGUGAAUCUGCGAAUUCUGCUGUAUAACUC [U25A U78A], the self-cleavage amounted to 0.19.

UAACAGGGGGCCACAGCAGAAGCGAUCACGUCGCAGCCCCUGUCAGAUUCUGGUGAAUCUGCGAAUUCUGCUGUAUAGCUC [U25A U78G]: the self-cleavage stood at 0.37.

For the variant UAACAGGGGGCCACAGCAGAAGCGCUCACGUCGCAGCCCCUGUCAGAUUCUGGUGACUCUGCGAAUUCUGCUGUAUAUCUC [U25C A57C], the self-cleavage is 0.1.
